The target of data set [1] is T1, ω-transaminase from Vibrio fluvialis JS17 (VfTA) (Vibrio fluvialis, UniProt F2XBU9).
T1 sequence (F2XBU9 1-453): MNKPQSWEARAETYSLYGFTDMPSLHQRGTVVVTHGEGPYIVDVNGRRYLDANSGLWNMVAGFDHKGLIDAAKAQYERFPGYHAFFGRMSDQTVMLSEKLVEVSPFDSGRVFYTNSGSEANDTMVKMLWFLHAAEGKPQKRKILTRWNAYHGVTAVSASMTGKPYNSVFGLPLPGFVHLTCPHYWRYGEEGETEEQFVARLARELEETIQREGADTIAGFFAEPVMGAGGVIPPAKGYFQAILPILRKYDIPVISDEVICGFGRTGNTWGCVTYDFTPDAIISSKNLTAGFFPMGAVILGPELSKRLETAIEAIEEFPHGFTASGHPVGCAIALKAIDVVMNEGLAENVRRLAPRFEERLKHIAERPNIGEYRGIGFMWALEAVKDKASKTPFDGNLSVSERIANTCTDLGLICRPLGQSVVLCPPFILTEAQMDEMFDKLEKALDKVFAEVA
The data set is described as follows: product formation by purified VfTA (GC); no product inhibition detected. It is filed as biochemical.

The target in data set [2] is T1, ω-transaminase from Vibrio fluvialis JS17 (VfTA). The data set is described as follows: enzyme kinetics (GC assay), product inhibition of VfTA. It is filed as biochemical.
Substrate in the data set “purified protein”: C[C@H](N)c1ccccc1
The data set is described as follows: purified protein. It is filed as biochemical, Vibrio fluvialis. The following applies: pyridoxal-5'-phosphate (PLP).

Substrate in data set [3]: CC(C)[C@@H]1CC[C@@H](C)CC1=O
The data set is described as follows: steady-state kinetics with purified VfTA (KM, GC assay). Type of data set: biochemical, Vibrio fluvialis. Particulars: pyridoxal-5'-phosphate (PLP).

A word on the Ki: it is the dissociation constant of the complex between target and ligand, obtained from inhibition or displacement. In general, Km refers to the concentration of substrate that gives half-maximal velocity. A word on the kcat/Km: it is the turnover number divided by the Michaelis constant.

As for `CC(C)[C@@H]1CC[C@@H](C)C[C@@H]1N` [(+)-neomenthylamine], the “product formation by purified VfTA (GC); no product inhibition detected” value in data set [1] is “transaminase (VfTA) from Vibrio fluvialis JS17 (PDB: 5ZTX) that can convert (−)-menthone into (+)-neomenthylamine successfully”.

`CC(=O)c1ccccc1` [Acetophenone] gave a Ki in data set [2] of 600 µM.

B1: ω-transaminase from Vibrio fluvialis JS17 (VfTA) (Vibrio fluvialis) (protein)
chain: T1 sequence (F2XBU9 1-453)
For B1, the Km in the data set “purified protein” turned out to be 800 ± 100 µM; in data set [3], 5000 ± 600 µM. Moreover, the figures for the kcat/Km (in “purified protein”; in data set [3]) were 54400 M⁻¹ s⁻¹ and 3300 M⁻¹ s⁻¹, respectively.

The values are drawn from PMC10992614, “Construction and optimization of a biocatalytic route for the synthesis of neomenthylamine from menthone” (Bioresources and Bioprocessing, 2023).
